In article PMC11577422:
Like-named read-outs stand apart in the source and are kept apart here.

Substrate: Cc1ccco1
Assay type: in vitro ADME, human

B1: CYP 2E1 (Homo sapiens) (protein)
chain: MSALGVTVALLVWAAFLLLVSMWRQVHSSWNLPPGPFPLPIIGNLFQLELKNIPKSFTRLAQRFGPVFTLYVGSQRMVVMHGYKAVKEALLDYKDEFSGRGDLPAFHAHRDRGIIFNNGPTWKDIRRFSLTTLRNYGMGKQGNESRIQREAHFLLEALRKTQGQPFDPTFLIGCAPCNVIADILFRKHFDYNDEKFLRLMYLFNENFHLLSTPWLQLYNNFPSFLHYLPGSHRKVIKNVAEVKEYVSERVKEHHQSLDPNCPRDLTDCLLVEMEKEKHSAERLYTMDGITVTVADLFFAGTETTSTTLRYGLLILMKYPEIEEKLHEEIDRVIGPSRIPAIKDRQEMPYMDAVVHEIQRFITLVPSNLPHEATRDTIFRGYLIPKGTVVVPTLDSVLYDNQEFPDPEKFKPEHFLNENGKFKYSDYFKPFSTGKRVCAGEGLARMELFLLLCAILQHFNLKPLVDPKDIDLSPIHIGFGCIPPRYKLCVIPRS
other: CYP 2E1; I) high substrate concentrations
  Km: I) 1966.76; II) 23.29 μM
other: CYP 2E1; II) low substrate concentrations
  Km: 23.3 µM
